In patent US20190309084A1 (ALLIGATOR BIOSCIENCE, published 2019):

T1: Human GITR (Acro Biosystems, #GIR-H5228) (human, UniProt Q9Y5U5 26-161)
T1 construct: Bought recombinant protein, amine-coupled to the sensor tips; also called hGITR
T1 sequence: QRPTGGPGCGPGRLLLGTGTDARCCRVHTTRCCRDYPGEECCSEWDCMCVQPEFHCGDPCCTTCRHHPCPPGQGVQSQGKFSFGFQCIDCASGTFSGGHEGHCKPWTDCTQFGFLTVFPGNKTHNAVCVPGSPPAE

T2: GITR-hFc (R&D Systems, #689-GR) (human, UniProt Q9Y5U5 26-161)
T2 construct: Bought; also called Human GITR (coated in ELISA plates); not shown: human Fc part of a bought fusion protein
T2 sequence: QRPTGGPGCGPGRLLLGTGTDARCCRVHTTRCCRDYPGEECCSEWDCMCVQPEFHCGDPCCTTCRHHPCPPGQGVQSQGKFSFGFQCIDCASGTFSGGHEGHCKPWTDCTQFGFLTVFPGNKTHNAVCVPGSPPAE

B1: GITR/CTLA-4 bispecific antibody 2348/2349 (bispecific antibody)
VH: EVQLLESGGGLVQPGGSLRLSCAASGFTFGYYYMSWVRQAPGKGLEWVSGISSPSSYTYYADSVKGRFTISRDNSKNTLYLQMNSLRAEDTAVYYCARYYGSYFDYWGQGTLVTVSS
light: DIQMTQSPSSLSASVGDRVTITCRASQAISAYLNWYQQKPGKAPKLLIYAASSLQSGVPSRFSGSGSGTDFTLTISSLQPEDFATYYCQQSYGYYLYTFGQGTKLEIKRTVAAPSVFIFPPSDEQLKSGTASVVCLLNNFYPREAKVQWKVDNALQSGNSQESVTEQDSKDSTYSLSSTLTLSKADYEKHKVYACEVTHQGLSSPVTKSFNRGECSGGGGSGGGGSAPLKIQAYFNETADLPCQFANSQNLSLSELVVFWQDQENLVLNEVYLGKERFDSVDSKYMGRTSFDSDSWTLRLHNLQIKDKGRYQCIIHHKKPTGMINIHQMNSELSVLA
notes: Anti-GITR IgG with CD86 mutant 1040 fused to the C-terminus of the kappa chain
B2: GITR/CTLA-4 bispecific antibody 2372/2373, afucosylated IgG1 format (bispecific antibody)
VH: EVQLLESGGGLVQPGGSLRLSCAASGFTFSGYSMGWVRQAPGKGLEWVSAISGSGGSTYYADSVKGRFTISRDNSKNTLYLQMNSLRAEDTAVYYCARYPWGYYFDYWGQGTLVTVSS
light: DIQMTQSPSSLSASVGDRVTITCRASQGIRAYLNWYQQKPGKAPKLLIYAVSSLQSGVPSRFSGSGSGTDFTLTISSLQPEDFATYYCQQYYYPPLSTFGQGTKLEIKRTVAAPSVFIFPPSDEQLKSGTASVVCLLNNFYPREAKVQWKVDNALQSGNSQESVTEQDSKDSTYSLSSTLTLSKADYEKHKVYACEVTHQGLSSPVTKSFNRGECSGGGGSGGGGSAPLKIQAYFNETADLPCQFANSQNLSLSELVVFWQDQENLVLNEVYLGKERFDSVDSKYMGRTSFDSDSWTLRLHNLQIKDKGRYQCIIHHKKPTGMINIHQMNSELSVLA
modifications: afucosylated Fc domain
B3: GITR/CTLA-4 bispecific antibody 2372/2373, wildtype IgG1 format (bispecific antibody)
VH: EVQLLESGGGLVQPGGSLRLSCAASGFTFSGYSMGWVRQAPGKGLEWVSAISGSGGSTYYADSVKGRFTISRDNSKNTLYLQMNSLRAEDTAVYYCARYPWGYYFDYWGQGTLVTVSS
light: DIQMTQSPSSLSASVGDRVTITCRASQGIRAYLNWYQQKPGKAPKLLIYAVSSLQSGVPSRFSGSGSGTDFTLTISSLQPEDFATYYCQQYYYPPLSTFGQGTKLEIKRTVAAPSVFIFPPSDEQLKSGTASVVCLLNNFYPREAKVQWKVDNALQSGNSQESVTEQDSKDSTYSLSSTLTLSKADYEKHKVYACEVTHQGLSSPVTKSFNRGECSGGGGSGGGGSAPLKIQAYFNETADLPCQFANSQNLSLSELVVFWQDQENLVLNEVYLGKERFDSVDSKYMGRTSFDSDSWTLRLHNLQIKDKGRYQCIIHHKKPTGMINIHQMNSELSVLA
B4: GITR/CTLA-4 bispecific antibody 2404/2405 (bispecific antibody, IgG1)
VH: EVQLLESGGGLVQPGGSLRLSCAASGFTFSYSSMSWVRQAPGKGLEWVSYIGSGGSHTYYADSVKGRFTISRDNSKNTLYLQMNSLRAEDTAVYYCARYSYYFDYWGQGTLVTVSS
light: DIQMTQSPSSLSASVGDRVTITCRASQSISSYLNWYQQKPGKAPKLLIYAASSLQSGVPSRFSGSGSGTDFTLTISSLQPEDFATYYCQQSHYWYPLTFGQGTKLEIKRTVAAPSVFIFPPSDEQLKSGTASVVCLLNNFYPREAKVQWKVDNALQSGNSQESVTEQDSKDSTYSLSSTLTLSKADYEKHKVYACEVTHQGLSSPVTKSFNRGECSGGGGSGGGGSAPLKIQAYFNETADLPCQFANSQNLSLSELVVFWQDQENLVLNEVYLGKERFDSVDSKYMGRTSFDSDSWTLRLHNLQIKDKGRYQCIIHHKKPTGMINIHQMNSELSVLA

What was measured:
[1] = target: T1, Human GITR (Acro Biosystems, #GIR-H5228); assay: BLI (Octet RED96), GITR amine-coupled to AR2G tips, bispecific as analyte, 1:1 fit
[2] = target: T2, GITR-hFc (R&D Systems, #689-GR); assay: dual ELISA: GITR-hFc coated, bispecific titrated, biotinylated CTLA-4-mFc then streptavidin-HRP, luminescence
[3] = target: T2, GITR-hFc (R&D Systems, #689-GR); assay: dual ELISA: GITR-hFc coated, bispecific titrated, detected with biotinylated CTLA-4-mFc + streptavidin-HRP (signal needs binding to both targets); afucosylated IgG1; dual ELISA, signal needs both GITR and CTLA-4
[4] = target: T3, human CTLA-4 (ACRO Biosystems, #CT4-H5229) (human, UniProt P16410 38-152); assay: BLI (Octet RED96), bispecific captured on anti-hIgG Fc (AHC) tips, hCTLA-4 as analyte, 1:1 fit
T3 construct: Bought recombinant protein, used as analyte in solution; also called hCTLA-4
T3 sequence (P16410 38-152 limits assumed): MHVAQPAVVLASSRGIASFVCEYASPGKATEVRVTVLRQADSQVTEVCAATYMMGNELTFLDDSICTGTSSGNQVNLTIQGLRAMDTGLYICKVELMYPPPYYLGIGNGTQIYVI

[5] = target: T2, GITR-hFc (R&D Systems, #689-GR); assay: dual ELISA: GITR-hFc coated, bispecific titrated, detected with biotinylated CTLA-4-mFc + streptavidin-HRP (signal needs binding to both targets); wildtype IgG1; dual ELISA, signal needs both GITR and CTLA-4

| Binder | Kd [1] [nM] | koff [1] [s⁻¹] | kon [1] [M⁻¹ s⁻¹] | EC50 (read off the curve) [2] [nM] | EC50 [3] [nM] | Kd [4] [nM] | koff [4] [s⁻¹] | kon [4] [M⁻¹ s⁻¹] | EC50 [5] [nM] |
| --- | --- | --- | --- | --- | --- | --- | --- | --- | --- |
| B1 | 0.346 | 5.28e-05 | 153000 | ~1 | – | – | – | – | – |
| B2 | – | – | – | – | 0.54 | – | – | – | – |
| B3 | 0.608 | 0.000214 | 351000 | ~0.5 | – | 2.9 | 0.000551 | 190000 | 0.64 |
| B4 | 1.67 | 0.000423 | 254000 | ~0.6 | – | – | – | – | – |
